These results are taken from patent US20060241051A1 (Takeda / Millennium, published 2006).

The labels stand for the following.
B1: Compound No. 242: des(1)-[D-Tyr2,D-Trp3,AzaGly7,Arg(Me)9]MS10 (peptide)
peptide: [dY][dW]NSF[azaGly]L[Arg(Me)]F-NH2
B2: Compound No. 204: [D-Tyr1, Ala7, Arg(Me)9]MS10 (peptide)
peptide: [dY]NWNSFAL[Arg(Me)]F-NH2
modifications: N-terminus assumed
SMILES: CNC(=N)NCCC[C@H](NC(=O)[C@H](CC(C)C)NC(=O)[C@H](C)NC(=O)[C@H](Cc1ccccc1)NC(=O)[C@H](CO)NC(=O)[C@H](CC(N)=O)NC(=O)[C@H](Cc1c[nH]c2ccccc12)NC(=O)[C@H](CC(N)=O)NC(=O)[C@H](N)Cc1ccc(O)cc1)C(=O)N[C@@H](Cc1ccccc1)C(N)=O
notes: printed structure is the same as that of Compound No. 173
B3: Compound No. 208: [D-Tyr1,Thr4,Arg(Me)9]MS10 (peptide)
peptide: [dY]NWTSFGL[Arg(Me)]F-NH2
B4: Compound No. 211: [D-Tyr1,Thr5,Arg(Me)9]MS10 (peptide)
peptide: [dY]NWNTFGL[Arg(Me)]F-NH2
modifications: N-terminus assumed
SMILES: CNC(=N)NCCC[C@H](NC(=O)[C@H](CC(C)C)NC(=O)CNC(=O)[C@H](Cc1ccccc1)NC(=O)[C@@H](NC(=O)[C@H](CC(N)=O)NC(=O)[C@H](Cc1c[nH]c2ccccc12)NC(=O)[C@H](CC(N)=O)NC(=O)[C@H](N)Cc1ccc(O)cc1)[C@@H](C)O)C(=O)N[C@@H](Cc1ccccc1)C(N)=O
B5: Compound No. 205: [D-Tyr1,Thr3,Arg(Me)9]MS10 (peptide)
peptide: [dY]NTNSFGL[Arg(Me)]F-NH2
modifications: N-terminus assumed
SMILES: CNC(=N)NCCC[C@H](NC(=O)[C@H](CC(C)C)NC(=O)CNC(=O)[C@H](Cc1ccccc1)NC(=O)[C@H](CO)NC(=O)[C@H](CC(N)=O)NC(=O)[C@@H](NC(=O)[C@H](CC(N)=O)NC(=O)[C@H](N)Cc1ccc(O)cc1)[C@@H](C)O)C(=O)N[C@@H](Cc1ccccc1)C(N)=O
B6: Compound No. 212: [D-Tyr1,Ala5,Arg(Me)9]MS10 (peptide)
peptide: [dY]NWNAFGL[Arg(Me)]F-NH2
modifications: N-terminus assumed
SMILES: CNC(=N)NCCC[C@H](NC(=O)[C@H](CC(C)C)NC(=O)CNC(=O)[C@H](Cc1ccccc1)NC(=O)[C@H](C)NC(=O)[C@H](CC(N)=O)NC(=O)[C@H](Cc1c[nH]c2ccccc12)NC(=O)[C@H](CC(N)=O)NC(=O)[C@H](N)Cc1ccc(O)cc1)C(=O)N[C@@H](Cc1ccccc1)C(N)=O
B7: Compound No. 210: [D-Tyr1,Ala4,Arg(Me)9]MS10 (peptide)
peptide: [dY]NWASFGL[Arg(Me)]F-NH2
modifications: N-terminus assumed
SMILES: CNC(=N)NCCC[C@H](NC(=O)[C@H](CC(C)C)NC(=O)CNC(=O)[C@H](Cc1ccccc1)NC(=O)[C@H](CO)NC(=O)[C@H](C)NC(=O)[C@H](Cc1c[nH]c2ccccc12)NC(=O)[C@H](CC(N)=O)NC(=O)[C@H](N)Cc1ccc(O)cc1)C(=O)N[C@@H](Cc1ccccc1)C(N)=O
B8: Compound No. 206: [D-Tyr1,Ile3,Arg(Me)9]MS10 (peptide)
peptide: [dY]NINSFGL[Arg(Me)]F-NH2
modifications: N-terminus assumed
SMILES: CC[C@H](C)[C@H](NC(=O)[C@H](CC(N)=O)NC(=O)[C@H](N)Cc1ccc(O)cc1)C(=O)N[C@@H](CC(N)=O)C(=O)N[C@@H](CO)C(=O)N[C@@H](Cc1ccccc1)C(=O)NCC(=O)N[C@@H](CC(C)C)C(=O)N[C@@H](CCCNC(=N)NC)C(=O)N[C@@H](Cc1ccccc1)C(N)=O
B9: Compound No. 213: [D-Tyr1,Val8,Arg(Me)9]MS10 (peptide)
peptide: [dY]NWNSFGV[Arg(Me)]F-NH2
B10: Compound No. 268: des(1-3)-Diphenylacetyl-[AzaGly7,Arg(Me)9]MS10 (peptide)
peptide: {Diphenylacetyl′}-NSF[azaGly]L[Arg(Me)]F-NH2
B11: Compound No. 271: des(1-2)-[AzaGly7,Arg(Me)9]MS10 (peptide)
peptide: WNSF[azaGly]L[Arg(Me)]F-NH2
modifications: N-terminus assumed
SMILES: CNC(=N)NCCC[C@H](NC(=O)[C@H](CC(C)C)NC(=O)NNC(=O)[C@H](Cc1ccccc1)NC(=O)[C@H](CO)NC(=O)[C@H](CC(N)=O)NC(=O)[C@@H](N)Cc1c[nH]c2ccccc12)C(=O)N[C@@H](Cc1ccccc1)C(N)=O
B12: Compound No. 269: des(1-3)-3-Phenylpropionyl-[AzaGly7,Arg(Me)9]MS10 (peptide)
peptide: {3‑Phenylpropionyl}-NSF[azaGly]L[Arg(Me)]F-NH2
B13: Compound No. 266: des(1-3)-Indole-3-acetyl-[AzaGly7,Arg(Me)9]MS10 (peptide)
peptide: {Indole‑3‑acetyl}-NSF[azaGly]L[Arg(Me)]F-NH2
B14: Compound No. 273: des(1-2)-Amidino-[AzaGly7,Arg(Me)9]MS10 (peptide)
peptide: amidino-WNSF[azaGly]L[Arg(Me)]F-NH2
SMILES: CNC(=N)NCCC[C@H](NC(=O)[C@H](CC(C)C)NC(=O)NNC(=O)[C@H](Cc1ccccc1)NC(=O)[C@H](CO)NC(=O)[C@H](CC(N)=O)NC(=O)[C@H](Cc1c[nH]c2ccccc12)NC(=N)N)C(=O)N[C@@H](Cc1ccccc1)C(N)=O
B15: Compound No. 270: [D-Tyr1,Phe3,Ser-Phe5,AzaGly7,Arg(Me)9]MS10 (peptide)
peptide: [dY]NFNSFF[azaGly]L[Arg(Me)]F-NH2
notes: 11 residues; also called Endo-Phe5a-[D-Tyr1,Phe3,AzaGly7,Arg(Me)9]MS10
B16: Compound No. 281: [D-Tyr1,Pya(2)6,Arg(Me)9]MS10 (peptide)
peptide: YNWNSXGLRF
modifications: D-Tyr1; Pya(2)6; Arg(Me)9; C-terminal amide
B17: Compound No. 290: [D-Pya(3)1,D-Asn2,Cha3,AzaGly7,Arg(Me)9]MS10 (peptide)
peptide: [d3Pal][dN][Cha]NSF[azaGly]L[Arg(Me)]F-NH2
modifications: N-terminus assumed
SMILES: CNC(=N)NCCC[C@H](NC(=O)[C@H](CC(C)C)NC(=O)NNC(=O)[C@H](Cc1ccccc1)NC(=O)[C@H](CO)NC(=O)[C@H](CC(N)=O)NC(=O)[C@H](CC1CCCCC1)NC(=O)[C@@H](CC(N)=O)NC(=O)[C@H](N)Cc1cccnc1)C(=O)N[C@@H](Cc1ccccc1)C(N)=O
B18: Compound No. 267: des(1-3)-4-(3-Indolyl)butyryl-[AzaGly7,Arg(Me)9]MS10 (peptide)
peptide: {4‑(3-Indolyl)butyryl}-NSF[azaGly]L[Arg(Me)]F-NH2
B19: Compound No. 272: des(1-2)-Acetyl-[AzaGly7,Arg(Me)9]MS10 (peptide)
peptide: Ac-WNSF[azaGly]L[Arg(Me)]F-NH2
SMILES: CNC(=N)NCCC[C@H](NC(=O)[C@H](CC(C)C)NC(=O)NNC(=O)[C@H](Cc1ccccc1)NC(=O)[C@H](CO)NC(=O)[C@H](CC(N)=O)NC(=O)[C@H](Cc1c[nH]c2ccccc12)NC(C)=O)C(=O)N[C@@H](Cc1ccccc1)C(N)=O
B20: Compound No. 278: des(1-3)-Cyclohexanecarbonyl-[AzaGly7, Arg(Me)9]MS10 (peptide)
peptide: Cyclohexanecarbonyl-NSF[azaGly]L[Arg(Me)]F-NH2
SMILES: CNC(=N)NCCC[C@H](NC(=O)[C@H](CC(C)C)NC(=O)NNC(=O)[C@H](Cc1ccccc1)NC(=O)[C@H](CO)NC(=O)[C@H](CC(N)=O)NC(=O)C1CCCCC1)C(=O)N[C@@H](Cc1ccccc1)C(N)=O
B21: Compound No. 279: des(1-3)-2-(Indol-3-yl)ethylcarbamoyl-[AzaGly7,Arg(Me)9]MS10 (peptide)
peptide: {2‑(indol-3-yl)ethylcarbamoyl}-NSF[azaGly]L[Arg(Me)]F-NH2
SMILES: CNC(=N)NCCC[C@H](NC(=O)[C@H](CC(C)C)NC(=O)NNC(=O)[C@H](Cc1ccccc1)NC(=O)[C@H](CO)NC(=O)[C@H](CC(N)=O)NC(=O)NCCc1c[nH]c2ccccc12)C(=O)N[C@@H](Cc1ccccc1)C(N)=O
B22: Compound No. 277: des(1-3)-n-Hexanoyl-[AzaGly7,Arg(Me)9]MS10 (peptide)
peptide: {n‑Hexanoyl}-NSF[azaGly]L[Arg(Me)]F-NH2

Square brackets hold non-standard residues; d marks the D form. Primed or numbered codes have the meaning given here. Ends that are not written are not given here. * marks the point of attachment. 2‑(indol-3-yl)ethylcarbamoyl = O=C(NCCc1c[nH]c2ccccc12)*; Cyclohexanecarbonyl = O=C(C1CCCCC1)*; Arg(Me) = CNC(=N)NCCC[C@H](N)C(=O)O; Diphenylacetyl′ = not defined here; d3Pal = N[C@H](Cc1cccnc1)C(=O)O; Cha = N[C@@H](CC1CCCCC1)C(=O)O; amidino = N=C(N)*; azaGly = NNC(=O)O

The target in the first test is T1, human OT7T175 (metastin receptor) (human, UniProt Q969F8 1-398). Briefly: cell-based or functional assay.
T1 sequence (Q969F8 whole entry L364H): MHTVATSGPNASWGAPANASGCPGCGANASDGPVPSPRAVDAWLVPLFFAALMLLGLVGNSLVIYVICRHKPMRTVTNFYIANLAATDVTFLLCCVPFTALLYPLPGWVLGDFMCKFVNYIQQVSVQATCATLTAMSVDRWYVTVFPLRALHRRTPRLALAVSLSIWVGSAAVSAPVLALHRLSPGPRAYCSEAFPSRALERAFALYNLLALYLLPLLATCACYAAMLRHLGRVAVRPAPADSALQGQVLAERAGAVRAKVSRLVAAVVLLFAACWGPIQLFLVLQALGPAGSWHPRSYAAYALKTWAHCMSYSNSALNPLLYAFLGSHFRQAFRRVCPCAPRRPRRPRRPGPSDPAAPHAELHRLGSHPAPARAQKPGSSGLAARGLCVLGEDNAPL
As for B1, the “intracellular Ca ion level-increasing activity (FLIPR)” value is 2 specific activity to metastin (1-54).

Consider B2, for which the “intracellular Ca ion level-increasing activity (FLIPR)” value was 5 specific activity to metastin (1-54).

With B3, the “intracellular Ca ion level-increasing activity (FLIPR)” value was 1 specific activity to metastin (1-54).

For B4, the “intracellular Ca ion level-increasing activity (FLIPR)” value was 10 specific activity to metastin (1-54).

On to B5, for which the “intracellular Ca ion level-increasing activity (FLIPR)” value was 10 specific activity to metastin (1-54).

On to B6, for which the “intracellular Ca ion level-increasing activity (FLIPR)” value is 10 specific activity to metastin (1-54).

As for B7, the “intracellular Ca ion level-increasing activity (FLIPR)” value is 1 specific activity to metastin (1-54).

Take B8: the “intracellular Ca ion level-increasing activity (FLIPR)” value was 10 specific activity to metastin (1-54).

As for B9, the “intracellular Ca ion level-increasing activity (FLIPR)” value is 2 specific activity to metastin (1-54).

The target of a further test is T1, human OT7T175 (metastin receptor). Briefly: FMAT competition with Cy-5-labeled metastin (40-54), hOT7T175-expressed CHO cells. How it is done:
h0T7T175-Expressed CHO cells were cultured in MEM-α medium (nucleic acid-free) containing 10% dialyzed serum. The medium was removed and the adherent cells were washed with PBS. Then, PBS containing 5 mM EDTA was added and the cells were scraped from a flask with a cell scraper. […] To each well of a 96-Well Black Clear Bottom Plate (Applied Biosystems, Inc.), 10 μL of assay buffer containing 1% dimethylsulfoxide was added to examine total binding, 10 μL of 10 μM non-labeled peptide (having the same amino acid sequence as that of the labeled one) solution diluted with assay buffer to examine non-specific binding, and 10 μL of a test compound diluted with assay buffer to examine the binding inhibition activity of the test compound, respectively. Furthermore, 90 μL each of the cell suspension was dispensed to each well. […] The specific binding is a value obtained by subtracting the non-specific binding from the total binding.
In turn, B10 yielded a concentration for half-maximal inhibition (IC50) of 550 nM.

B11 showed a concentration for half-maximal inhibition (IC50) of 120 nM. This IC50 lies about 4.6-fold lower than the previous one.

Regarding B12, the IC50 turned out to be 470 nM.

B13 gave an IC50 of 230 nM.

B14 displayed an IC50 of 300 nM. This IC50 and that of the molecule before are within 1.5-fold of each other.

In turn, B15 yielded an IC50 of 15 nM.

The molecule B16 yielded an IC50 of 230 nM.

Take B17: the IC50 is 1.4 nM.

Turning to B1, the IC50 worked out at 70 nM.

Regarding B18, the IC50 stood at 360 nM.

Regarding B19, the IC50 was 540 nM.

Consider B2, for which the IC50 was determined as 680 nM.

Molecule B3 had an IC50 of 830 nM.

As for B4, the IC50 amounted to 44 nM.

B5 showed an IC50 of 260 nM.

B6: the IC50 was determined as 36 nM.

For the molecule B7, the IC50 came out at 730 nM.

B8 yielded an IC50 of 85 nM.

Molecule B9 came in with a half-inhibitory concentration (IC50) of 190 nM.

For B20, the 50% inhibitory concentration (IC50) came out at 110 nM.

B21: the IC50 is 29 nM.

For the molecule B22, the IC50 was 54 nM.

A further test has the same target. Briefly: cell-based or functional assay. The source holds these as a separate data set.
On to B10, for which the “intracellular Ca ion level-increasing activity (FLIPR)” value is 1 specific activity to metastin (1-54).

Turning to B11, the “intracellular Ca ion level-increasing activity (FLIPR)” value is 1 specific activity to metastin (1-54).

Take B12: the “intracellular Ca ion level-increasing activity (FLIPR)” value was 3 specific activity to metastin (1-54).

On to B13, for which the “intracellular Ca ion level-increasing activity (FLIPR)” value is 2 specific activity to metastin (1-54).

With B14, the “intracellular Ca ion level-increasing activity (FLIPR)” value is 5 specific activity to metastin (1-54).

On to B15, for which the “intracellular Ca ion level-increasing activity (FLIPR)” value was 1 specific activity to metastin (1-54).

As for B16, the “intracellular Ca ion level-increasing activity (FLIPR)” value is 0.5 specific activity to metastin (1-54).

For the molecule B17, the “intracellular Ca ion level-increasing activity (FLIPR)” value was 1 specific activity to metastin (1-54).

Consider B18, for which the “intracellular Ca ion level-increasing activity (FLIPR)” value is 2 specific activity to metastin (1-54).

Turning to B19, the “intracellular Ca ion level-increasing activity (FLIPR)” value was 2 specific activity to metastin (1-54).

With B20, the “intracellular Ca ion level-increasing activity (FLIPR)” value is 2 specific activity to metastin (1-54).

On to B21, for which the “intracellular Ca ion level-increasing activity (FLIPR)” value is 5 specific activity to metastin (1-54).

For the molecule B22, the “intracellular Ca ion level-increasing activity (FLIPR)” value is 2 specific activity to metastin (1-54).
